Kd and IC50 data for 20 molecules are collected here from US20250026813A1 (published 2025).

The target of test [1] is SARS-CoV-2 spike protein receptor binding domain (RBD) (SARS-CoV-2, UniProt P0DTC2 319-541).
Test [2] addresses SARS-CoV-2 spike protein N-terminal domain (NTD) (SARS-CoV-2, UniProt P0DTC2 14-305).
The target in test [3] is SARS-CoV-2 spike receptor binding domain (RBD), antigen of Example 10 (SARS-CoV-2, UniProt P0DTC2 319-541).
Test [4] deals with SARS-CoV-2 spike N-terminal domain (NTD), antigen of Example 10 (SARS-CoV-2, UniProt P0DTC2 14-305).
Test [5] concerns the target RBD domain of the spike protein of SARS-CoV-2 virus (Acro Biosystems SPD-C52H3) (SARS-CoV-2, UniProt P0DTC2 319-537).

B1: IMPI-042 (antibody, V domains shown)
VH: EVQLVESGGGLIQPGGSLRLSCAASGLTVSSNYMSWVRQAPGKGLEWVSIIYSGGSTYYADSVKGRFTISRDNSKNTLYLQMNSLRAEDTAVYYCARLGGYYYYGMDVWGQGTTVTVSS
VL: DIQMTQSPSSLSASVGERVTITCQASQDIRNYLNWYQKKPGKAPKLLIYDSSNLETGVPSRFSGGGSGTDFTFTISSLQPEDIATYYCQQYDNLPITFGQGTRLEIK
With B1, the Kd in test [1] was determined as 1.87 nM; in test [2], 662 nM.

B2: IMPI-054 (antibody, V domains shown)
VH: EVQLVESGGGLIQPGGSLRLSCAASGLTVSSNYMSWVRQAPGKGLEWVSIIYSGGSTYYADSVKGRFTISRDNSKNTLYLQMNSLRAEDTAVYYCARLGGYYYYGMDVWGQGTTVTVSS
VL: DIQMTQSPSSLSASVGERVTITCQASQDIRNYLNWYQKKPGKAPKLLIYDSSNLETGVPSRFSGSGSGTDFTFTISSLQPEDIATYYCQQYDNLPITFGQGTRLEIK
With B2, the Kd worked out at 2.06 nM in test [3] and 602 nM in test [4].

B3: IMPI-022 (antibody, V domains shown)
VH: EVQLVESGGGLVQPGRSLRLSCAASGFTFDDYAMHWVRQAPGKGLEWVSGITWNSGSIGYADSVKGRFTISRDNAKNSLYLHMNSLRVEDTALYYCAKDLQGDYYYYGVDVWGQGTTVTVSS
VL: AIQLTQSPSSLSASVGDRVTITCRASQGISSALAWYQQKPGKAPKLLLYDASSLVSGVPSRFSGSRSGTDFTLTISSLQPEDFATYYCQQFISYPLTFGGGTRVEIK
For B3, the Kd in test [2] was 603 nM.

B4: IMPI-027 (antibody, V domains shown)
VH: QVQLQESGPGLVKPSQTLSLTCTVSGGSISSYGYYWNWIRQHPGKGLEWIGYIYYSGSTYYNPSLKSRVTISVDTSKNQLSLRLNSVSAADTAVYYCARDFGGNSNYFDYWGQGTLVTVSS
VL: AIQLTQSPSSLSASVGDRVTITCRTSQGISSALAWYQQKPGKAPKLLIYDASSLESGVPSRFSGSGSGTDFTLTISSLQPEDFATYYCQQFNSYPLTFGGGTKVEIK
B4: the Kd in test [1] worked out at 6.31 nM; in test [2] it was 2910 nM.

B5: IMPI-024 (antibody, V domains shown)
VH: EVQLVQSGAEVKKPGESLKISCKGSGYSFTSYWIGWVRQMPGKGLEWMGIIYPGDSDTRYSPSFQGQVTISADKSISTAYLQWSSLKASDTAMYYCVRSYNWNYFDYWGQGTLVTVSS
VL: AIQLTQSPSSLSASVGDRVTITCRASQGISSGLAWYQQKAGKAPKLLIYDVSSLESGVPSRFSGSGSGTDFTLTISSLQPEDFATYYCQQFLSYPWTFGQGTKVEIK
As for B5, the Kd in test [1] was found to be 1.16 nM; in test [2] it was 660 nM.

B6: IMPI-033 (antibody, V domains shown)
VH: QVQLQESGPGLVKPSQTLSLTCTVSGGSISSYGYYWSWIRQHPGKGLEWIGYIYYSGSTYYNPSLKSRVTMSVDTSKNQLSLRLNSVSAADTAVYYCARDFGGNSNYFDYWGQGTLVTVSS
VL: AIQLTQSPSSLSASVGDRVTITCRASQGISSALAWYQQKPGKAPNLLIYDASSLESGVPSRFSGSGSGTDFTLTISSLQPEDFATYYCQQFNSSPLTFGGGTKVEIK
B6: the Kd in test [1] was 3.02 nM; in test [2], 1820 nM.

B7: IMPI-055 (antibody, V domains shown)
VH: QVQLVQSGAEVKKPGASVKVSCKASGYTFTSYDINWVRQATGQGLEWMGWMNPNSGNTGYAQKFQGRVTMTRDTSINTAYMELSSLRSEDTAVYFCARGGRYCSDVTCYSGEPFDYWGQGTLVTVSS
VL: EIMLTQSPDFQSVTPKEKVTITCRASQSIGSSLHWYQQKPDQSPKLLIKFASQSISGVPSRFSGSGSGTDFTLTINSLEAEDAAAYYCHQSSSLPHTFGPGTKVEIK
As for B7, the Kd worked out at 1.85 nM in test [3] and 1360 nM in test [4].

B8: IMPI-038 (antibody, V domains shown)
VH: QVQLVESGGGVVQPGRSLRLSCAASGFTFSSYGMHWVRQAPGKGLEWVAVISYDGSDKYYADSVKGRFTISRDNSKNTLYLQMNSLRAEDTAVYYCAKTVAGYYYYYYGMDVWGQGTTVTVSS
VL: DIQMTQSPSSVSASVGDRVTVTCRASQDISSWLAWFQQKPGKAPKFLIYDASNLENGVPSRFSGSGSGTDFTLTISSLQPEDFATYYCQQAKSFPWTFGQGTKVEIN
As to B8, the dissociation constant (Kd) in test [1] was 0.826 nM; in test [2], 475 nM.

B9: IMPI-067 (antibody, V domains shown)
VH: QVQLVESGGGVVQPGTSLRLSCAASGFTFNSFGMHWVRQAPGKGLEWVAVISYDGSSKYYADSVKGRFTISRDNSKNTLYLQMNSLRAEDTAVYYCAKDEGDYDDYYYGMDVWGQGTTVTVSS
VL: EIVLTQSPGSLSLSPGERATLSCRASQSLSSRYLAWYHQKPGQAPRLLIYGASSRATGIPDRFSGSGSGTDFTLTISGLEPEDFAVYYCQQYGNSITFGGGTKVEIK
The molecule B9 showed a Kd in test [4] of 84.5 nM.

B10: IMPI-059 (antibody, V domains shown)
VH: EVQLVESGGGLIQPGGSLRLSCAASGFTVSSIYMSWVRQAPGKGLEWVSIIYSRGSTDYADSVKGRFTISRDISKNTLYLQMNSLRAEDTAVYYCARDGTMVRGVHAFDIWGQGTMVTVSS
VL: DIQMTQSPPSLSASIGDRVTITCQASQDISNYLNWYQQKPGKAPKLLIYDASNLETGVPSRFSGSGSGTDFTLTISNLQPEDIVTYYCQQYDNLPSSFGQGTKLEIK
B10: inhibition in test [5] was half-maximal at 2.02 nM (IC50).

B11: IMPI-006 (antibody, V domains shown)
VH: QLQLQESGPGLVKPSETLSLTCTVSGGSISNSNYYWGWIRQPPGKGLEWIGSIYYSGRTYYNPSLKSRVTISVDTSKNQFSLKLSSVTAADTAVYYCARMGLLWFGEFYGMDVWGQGTTVTVSS
VL: DIQMTQSPSSLSASVGDRVTITCRASQGISSWLAWYQQKPEKAPKSLIYDASSLQRGVPSRFSGSGSGTDFTLTISSLQPEDFASYYCQQYNSYPLTFGGGTRVEIK
In turn, B11 came in with an equilibrium dissociation constant (Kd) in test [1] of 191 nM.

B12: IMPI-037 (antibody, V domains shown)
VH: not shown
VL: DIQLTQSPSFLSASVGDRVTITCWASQGINSYLAWYQQKPGKAPKLLIYAASTLQSGVPSRFSGSGSGTEFTLTISSLQPEDFTTYYCQQFNDYPRTFGPGTKVEIK
Take B12: the IC50 in test [5] was found to be 7.76 nM.

B13: IMPI-005 (antibody, V domains shown)
VH: EVQLVESGGGLIQPGGSLRLSCAASGFTVSSNYMNWVRQAPGKGLEWVSVIYSGGSTYYADSVKGRFTISRDNSKNTLFLQMNSLRAEDSAVYYCARDLGPYGVDVWGQGTTVTVSS
VL: DIQLTQSPSFLSASVGDRVTITCWASQGISSYLAWYQQKPGKAPKLLIYAASTLQSGVPSRFSGSGSGTEFTLTISSLQPEDFATYYCQELNSYPLTFGQGTRLEIK
The molecule B13 gave a Kd in test [1] of 24.9 nM.

B14: IMPI-052 (antibody, V domains shown)
VH: EVQLVESGGGLIQPGGSLRLSCAASGVTVSSNYMNWVRQAPGKGLEGVSVIYSGGTTYYADSVKGRFTISRDNSKNTLYLQMNSLRAEDTAVYYCARDTVVYGMDVWGQGTTVTVSS
VL: DIQLTQSPSFLSASVGDRVTITCWASQGISSYLAWYQQKPGKAPKLLIYTASTLQSGVPSRFSGSGSGTEFTLTISSLQPEDFATYYCQQLNSYPLTFGGGTKVEIK
B14: the IC50 in test [5] came to 4.85 nM.

B15: IMPI-060 (antibody, V domains shown)
VH: EVQLVESGGGLIQPGGSLRLSCAASGVTVSSNYMSWVRQAPGKGLEWVSVIYSGGSTFYADSVKGRFTISRDNSKNTLYLQMNSLRAEDTAVYYCARDLSYYGMDVWGQGTTVTVSS
VL: DIQLTQSPSFLSASVGDRVTITCWASQGISSYLAWYQQKPGKAPKLLIYAASTLQSGVPSKFSGSGSGTEFTLTISSLQPEDFATYYCQQLNSYPSSFGQGTKLEIK
For B15, the Kd in test [3] is 141 nM.

B16: IMPI-037 (antibody, V domains shown)
VH: not shown
VL: DIQLTQSPSFLSASVGDRVTITCWASQGINSYLAWYQQKPGKAPKLLIYAASTLQSGVPSRFSGSGSGTEFTLTISSLQPEDFTTYYCQQFNDYPRTFGPGTKVEIK
B16 had a Kd in test [1] of 22.3 nM.

B17: IMPI-017 (antibody, V domains shown)
VH: EVQLVESGGGLIQPGGSLRLSCAAAGLTVSSNYMNWVRQVPGKGLEWVSVIYSGGSTYYADSVKGRFTISRDNSKNTLYLQMNSLRAEDTAVYYCARDLGTLGMDVWGQGTTVTVSS
VL: DIQLTQSPSFLSASVGDRVTITCWASQGISTYLAWYQQKPGKAPKLLIYAASTLQSGVPSRFSGSGSGTEFTLTISSLQPEDFATYYCQQLNSYLPTFGQGTKVEIK
As for B17, the Kd in test [1] turned out to be 2.25 nM; in test [2], 1050 nM.

B18: IMPI-029 (antibody, V domains shown)
VH: EVQLVESGGGLIQPGGSLRLSCAASGVTVSSNYMNWVRQAPGKGLEWVSVIYSGGSTYYADSVKGRFTISRDNSKNTLFLQMNSLRAEDSAVYYCARDLGPYGVDVWGQGTTVTVSS
VL: DIQLTQSPSFLSASVGDRVTITCWASQGISSYLAWYQQKPGKAPKLLIYAASTLQSGVPSRFSGSGSGTEFTLTISSLQPEDFATYYCQELNSYPLTFGQGTRLEIK
For the molecule B18, the Kd stood at 0.446 nM in test [1] and 219 nM in test [2].

B19: IMPI-021 (antibody, V domains shown)
VH: EVQLVESGGGLIQPGGSLRLSCAASGVTVSSNYMSWVRQAPGKGLEWVSVIYSGGSTFYADSVKGRFTISRDNSKNTLYLQMNSLRAEDTAVYYCARDLSYYGMDVWGQGTTVTVSS
VL: DIQLTQSPSFLSASVGDRVTITCWASQGISSYLAWYQQKPGKAPKLLIYAASTLQSGVPSKFSGSGSGTEFTLTISSLQPEDFATYYCQQLNSYPCSFGQGTKLEIK
In test [1], B19 registered a Kd of 14.7 nM.

B20: IMPI-047 (antibody, V domains shown)
VH: EVQLVESGGGLIQPGGSLRLSCAASGFTVSSNYMNWVRQAPGKGLEWVSVIYSGGSTYYADSVKGRFTISRDNSKNTLYLQMNSLRTEDTAVYYCARDLVAYGMDVWGQGTTVTVSS
VL: DIQLTQSPSFLSASVGDRVTITCWASQGISSYLAWYQQKPGKAPKVLIYAASTLQSGVPSRFSGSGSGTEFTLTISSLQPEDFATYYCQLLNSNPLTFGGGTKVEIK
In the case of B20, the dissociation constant (Kd) was 6.65 nM in test [1] and 2320 nM in test [2].

A word on the Kd: it is the equilibrium constant for the complex coming apart. A lower Kd goes with tighter binding. The term IC50 denotes the point on the concentration scale where inhibition reaches its midpoint. The low end stands for inhibition by little substance, the high end for a need for much substance.
